Experimental findings from paper PMC3485183 are described below.

Where only a bound is given, the exact number is not on record here.

Assay [1] concerns the target HA-tagged RCAN1-3KR mutant (human). The assay can be described thus: co-IP; HEK293 cells co-transfected with Flag-calcineurin and HA-tagged wild-type RCAN1 or RCAN1-3KR; IP with HA antibody, blot with Flag antibody.
In assay [2] the target is HA-tagged wild-type calcineurin A (UniProt Q08209). The assay can be described thus: co-IP; HEK293 cells co-transfected with HA-calcineurin and Myc-RCAN1, without or with T7-NEDD8, NEDD8-ΔGG, or after NEDD8 or control siRNA (60 nM); lysis in 1% NP40 buffer; IP with HA antibody, blot with Myc antibody.
For assay [3], the target named is Flag-calcineurin (UniProt Q08209).

Sequence of Myc-RCAN1 (P53805 whole entry): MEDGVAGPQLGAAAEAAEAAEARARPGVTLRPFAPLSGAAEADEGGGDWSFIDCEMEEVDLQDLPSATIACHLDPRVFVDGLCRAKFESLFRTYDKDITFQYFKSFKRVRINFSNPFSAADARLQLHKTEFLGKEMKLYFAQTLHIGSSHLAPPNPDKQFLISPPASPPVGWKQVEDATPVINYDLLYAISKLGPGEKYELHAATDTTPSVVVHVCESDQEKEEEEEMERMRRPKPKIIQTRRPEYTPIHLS

As to “Flag-calcineurin (from UniProt Q08209 1-521) (enzyme)”, in assay [1], the reduction of binding against wild-type RCAN1 worked out at 40%. For Myc-RCAN1 (natural protein), in assay [2], the increase of binding with co-expressed wild-type NEDD8, against no NEDD8 came out at 30%. On to “HA-tagged human wild-type RCAN1 (RCAN1-1S) (natural protein)”, for which the NFAT-luciferase reporter activity in HEK293 cells treated with ionomycin, inhibition against reporter alone in assay [3] was greater than 60%.
